# Assay results from IntAct's records for PubMed 16438971.
# B1: Protein …ON-INDUCED 19 (Arabidopsis thaliana (Mouse-ear cress)), Q39083 (parent)
# chain: MDADSKRFLATLRSRSEMLMGFEEIDGDDDFQEEFACPFCAESYDIIGLCCHIDDEHTLESKNAVCPVCSLKVGVDIVAHITLHHGSLFKLQRKRKSRKSGTNSTLSLLRKELREGDLQRLLGFTSRNGSVASSVTPDPLLSSFISPTRSQSSPAPRQTKNVSEDKQIERKRQVFISPVSLKDREERRHKSEFVQRLLSSAIFDEV
# partner: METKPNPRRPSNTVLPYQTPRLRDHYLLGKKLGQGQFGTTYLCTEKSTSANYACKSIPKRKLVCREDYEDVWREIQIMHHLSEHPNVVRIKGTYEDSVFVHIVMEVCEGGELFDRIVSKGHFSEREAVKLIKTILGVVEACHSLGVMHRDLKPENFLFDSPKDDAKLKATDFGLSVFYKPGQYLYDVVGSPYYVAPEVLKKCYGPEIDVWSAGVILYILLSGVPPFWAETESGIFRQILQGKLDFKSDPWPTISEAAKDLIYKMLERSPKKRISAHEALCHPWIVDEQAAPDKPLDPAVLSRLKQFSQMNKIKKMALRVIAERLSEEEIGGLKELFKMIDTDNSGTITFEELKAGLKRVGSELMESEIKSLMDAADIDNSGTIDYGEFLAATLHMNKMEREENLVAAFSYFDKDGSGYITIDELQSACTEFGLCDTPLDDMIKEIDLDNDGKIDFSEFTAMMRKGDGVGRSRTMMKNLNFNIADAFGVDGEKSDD
# B2: Calcium-dependent protein kinase 11 (Arabidopsis thaliana (Mouse-ear cress)), Q39016 (parent)
# chain: B1 partner
# partner: B1 chain
# Variants of: B1
# Settings: with cdpkb_arath CPK11, Q39016
row,effect of a mutation on the interaction,Variant
1,decreasing interaction,T105A
2,decreasing interaction,S107A

# Variants of: B2
# Settings: with di191_arath DI19-1, Q39083
row,effect of a mutation on the interaction,Variant
1,increasing interaction,F306A

# Variants of: B2
# Settings: with di191_arath DI19-1, Q39083
# Remark: another data set of the same source
row,effect of a mutation on the interaction,Variant
1,increasing interaction,D150A

# Variants of: B2
# Settings: with di191_arath DI19-1, Q39083
# Remark: another data set of the same source
row,effect of a mutation on the interaction,Variant
1,disrupting interaction,D150A

# Variants of: B2
# Settings: with di191_arath DI19-1, Q39083
# Remark: another data set of the same source
row,effect of a mutation on the interaction,Variant
1,increasing interaction,D150A;F306A
2,increasing interaction,D171A;F306A
